Test results reported in paper PMC12007268.

Key:
[1] = biological target: trastuzumab-YML (L309Y/Q311M/M428L) (human); assay: SPR; Biacore T200; trastuzumab-Fc variants amine-coupled to a CM5 chip (about 1,000 RU); hFcRn-His 1,000 to 62.5 nM in 1x PBST pH 6.0, 30 µl/min; 1:1 binding model (trastuzumab: steady state); triplicate
[2] = biological target: trastuzumab (wild-type Fc) (human); assay: as above
[3] = biological target: trastuzumab-DHS (L309D/Q311H/N434S) (human); assay: as above
[4] = biological target: trastuzumab-EML (L309E/Q311M/M428L) (human); assay: as above
[5] = biological target: trastuzumab-PFc29 (Q311R/M428L) (human); assay: as above
[6] = biological target: human neonatal Fc receptor, His-tagged (hFcRn-His) (UniProt P55899); assay: BLI; Octet R8; hFcRn-His (40 µg/ml) held on NTA biosensors; trastuzumab-Fc variants in PBS pH 6.0 bound for 20 s, then dissociation in PBS pH 7.4 for 5 s; initial on-rate from the first 2 s, initial off-rate from the first 1 s; values relative to trastuzumab
[7] = biological target: FcRn immobilised on the FcRn affinity column Gen2 (Roche Diagnostics) (human) (UniProt P55899); assay: pH-gradient FcRn affinity column chromatography; FcRn affinity column Gen2 (Roche); pH gradient; retention time and pH of elution
[8] = biological target: human neonatal Fc receptor, His-tagged (hFcRn-His) (UniProt P55899); assay: BLI (Octet R8); details: PBS (composition not stated), PBS pH 6.0 for association, PBS pH 7.4 for dissociation; for Relative on-rate (initial association rate, normalised to trastuzumab) (fold relative to trastuzumab): pH 6.0; for Relative off-rate (initial dissociation rate, normalised to trastuzumab) (fold relative to trastuzumab): pH 7.4
[9] = biological target: human neonatal Fc receptor, His-tagged (hFcRn-His) (UniProt P55899); assay: SPR (Biacore T200); details: pH 6.0; 1× PBS (composition not stated); 1× PBST (pH 6.0)
[10] = biological target: human neonatal Fc receptor, His-tagged (hFcRn-His) (UniProt P55899)

average of relative on- and off-rate [6] | relative initial off-rate at pH 7.4 (against trastuzumab) [6] | relative initial on-rate at pH 6.0 (against trastuzumab) [6] | pH at elution from the FcRn affinity column [7] | retention time on the pH-gradient FcRn affinity column [7] | Relative on-rate (initial association rate, normalised to trastuzumab) (fold relative to trastuzumab) [8] | Relative off-rate (initial dissociation rate, normalised to trastuzumab) (fold relative to trastuzumab) [8] | ka [9] | kd [9] | further results | Substance
 |  |  |  |  |  |  |  |  | Kd [1]: 878 nM; koff [1]: 0.0555 s⁻¹; kon [1]: 63200 M⁻¹ s⁻¹; Kd [2]: 4360 nM; Kd [3]: 1800 nM; koff [3]: 0.0645 s⁻¹; kon [3]: 35700 M⁻¹ s⁻¹; Kd [4]: 1670 nM; koff [4]: 0.0475 s⁻¹; kon [4]: 28500 M⁻¹ s⁻¹; Kd [5]: 1810 nM; koff [5]: 0.0721 s⁻¹; kon [5]: 39800 M⁻¹ s⁻¹ | human neonatal Fc receptor, His-tagged (hFcRn-His) (from UniProt P55899 24-297; P61769 21-119)
1 fold | 1 fold | 1 fold | 7.65 pH | 40.6 min |  |  |  |  |  | trastuzumab (wild-type Fc) (antibody)
 |  |  |  |  | 1 | 1 |  |  |  | trastuzumab (wild-type human IgG1 Fc)
1.82 fold | 1.83 fold | 1.81 fold |  |  |  |  |  |  |  | trastuzumab-DHS (L309D/Q311H/N434S) (antibody)
 |  |  |  |  | 1.81 | 1.83 | 35700 M⁻¹ s⁻¹ | 0.0645 s⁻¹ |  | trastuzumab-DHS L309D;Q311H;N434S
1.48 fold | 1.5 fold | 1.47 fold | 7.97 pH | 48 min |  |  |  |  |  | trastuzumab-EML (L309E/Q311M/M428L) (antibody)
 |  |  |  |  | 1.47 | 1.5 | 28500 M⁻¹ s⁻¹ | 0.0475 s⁻¹ |  | trastuzumab-EML L309E;Q311M;M428L
1.77 fold | 1.6 fold | 1.94 fold | 8.05 pH | 50.2 min |  |  |  |  |  | trastuzumab-PFc29 (Q311R/M428L) (antibody)
 |  |  |  |  | 1.94 | 1.6 | 39800 M⁻¹ s⁻¹ | 0.0721 s⁻¹ |  | trastuzumab-PFc29 Q311R;M428L
1.92 fold | 1.74 fold | 2.1 fold | 8.09 pH | 51.2 min |  |  |  |  | serum half-life t1/2 (terminal, beta-phase) in hFcRn transgenic mice (Tg276 hemizygous), single i.v. bolus 5 mg/kg, n = 3 [10]: 13.5 days | trastuzumab-YML (L309Y/Q311M/M428L) (antibody)
 |  |  |  |  | 2.1 | 1.74 | 63200 M⁻¹ s⁻¹ | 0.0555 s⁻¹ |  | trastuzumab-YML L309Y;Q311M;M428L
